{
  "source": "paper PMC4691890",
  "about": "(2015)",
  "binders": {"B1": {"name": "full-length human Apaf-1 (residues 1–1248) (natural protein)", "chain": "MDAKARNCLLQHREALEKDIKTSYIMDHMISDGFLTISEEEKVRNEPTQQQRAAMLIKMILKKDNDSYVSFYNALLHEGYKDLAALLHDGIPVVSSSSGKDSVSGITSYVRTVLCEGGVPQRPVVFVTRKKLVNAIQQKLSKLKGEPGWVTIHGMAGCGKSVLAAEAVRDHSLLEGCFPGGVHWVSVGKQDKSGLLMKLQNLCTRLDQDESFSQRLPLNIEEAKDRLRILMLRKHPRSLLILDDVWDSWVLKAFDSQCQILLTTRDKSVTDSVMGPKYVVPVESSLGKEKGLEILSLFVNMKKADLPEQAHSIIKECKGSPLVVSLIGALLRDFPNRWEYYLKQLQNKQFKRIRKSSSYDYEALDEAMSISVEMLREDIKDYYTDLSILQKDVKVPTKVLCILWDMETEEVEDILQEFVNKSLLFCDRNGKSFRYYLHDLQVDFLTEKNCSQLQDLHKKIITQFQRYHQPHTLSPDQEDCMYWYNFLAYHMASAKMHKELCALMFSLDWIKAKTELVGPAHLIHEFVEYRHILDEKDCAVSENFQEFLSLNGHLLGRQPFPNIVQLGLCEPETSEVYQQAKLQAKQEVDNGMLYLEWINKKNITNLSRLVVRPHTDAVYHACFSEDGQRIASCGADKTLQVFKAETGEKLLEIKAHEDEVLCCAFSTDDRFIATCSVDKKVKIWNSMTGELVHTYDEHSEQVNCCHFTNSSHHLLLATGSSDCFLKLWDLNQKECRNTMFGHTNSVNHCRFSPDDKLLASCSADGTLKLWDATSANERKSINVKQFFLNLEDPQEDMEVIVKCCSWSADGARIMVAAKNKIFLFDIHTSGLLGEIHTGHHSTIQYCDFSPQNHLAVVALSQYCVELWNTDSRSKVADCRGHLSWVHGVMFSPDGSSFLTSSDDQTIRLWETKKVCKNSAVMLKQEVDVVFQENEVMVLAVDHIRRLQLINGRTGQIDYLTEAQVSCCCLSPHLQYIAFGDENGAIEILELVNNRIFQSRFQHKKTVWHIQFTADEKTLISSSDDAEIQVWNWQLDKCIFLRGHQETVKDFRLLKNSRLLSWSFDGTVKVWNIITGNKEKDFVCHQGTVLSCDISHDATKFSSTSADKTAKIWSFDLLLPLHELRGHNGCVRCSAFSVDSTLLATGDDNGEIRIWNVSNGELLHLCAPLSEEGAATHGGWVTDLCFSPDGKMLISAGGYIKWWNVVTGESSQTFYTNGTNLKKIHVSPDFKTYVTVDNLGILYILQTLE"}},
  "target": "horse CytC K87W (horse, UniProt P00004 1-105, K87W)",
  "assay": "ITC",
  "data": [
    {"binder": "B1", "values": [
      {"measurement": "Ka", "value": "1.24e+06", "unit": "M⁻¹"}
    ]}
  ]
}
